{"source": "patent US9051356", "target": "synthetic glycosylated MUC1 30-mer peptide …[GalNAcalpha]…", "sequence (peptide, as listed by the source)": "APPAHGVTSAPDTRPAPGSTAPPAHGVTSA", "test": "ELISA on plate-coated glycosylated MUC1 30-mer peptide, antibody 1-400 ng/ml, anti-human Fcgamma1-peroxidase detection"}
{"substance": "chimeric PankoMab isolated from NM-F9 cells (antibody)", "values": [{"measurement": "binding activity, percent higher than that of the same antibody isolated from CHOdhfr- cells", "result": 50, "unit": "%"}]}
